Source: patent US20150267232A1, “IN VIVO AND IN VITRO CARBENE INSERTION AND NITRENE TRANSFER REACTIONS CATALYZED BY HEME ENZYMES” (California Institute of Technology, priority 2012, published 2015)
Numbering of substitutions follows the chain as printed. In names and notes the source's numbering stands.

Experiments:
[1] = N—H insertion, aniline with ethyl 2-diazopropanoate; format: biochemical; conditions: 10 μM catalyst, 20 mM aniline, 10 mM Na2S2O4, 10 mM ethyl 2-diazopropanoate
Experimental: The reactions shown in FIG. 37A were carried out with protein (20 μM), ethyl diazo acetate (8.5 mM), aniline (20 mM) and Na2S2O4 (10 mM) in phosphate buffer (pH 8) and allowed to shake at room temperature for 12 h. Yields are reported in parenthesis and TTN are presented in italics. Yields were determined by GC calibrated for each product. An isolated yield of 65% for compound 4.3 was determined for the milligram scale reaction run as follows: 25 mM EDA, 25 mM aniline, 25 μM protein, and 25 mM Na2S2O4. The reaction producing compounds 4.5 and 4.10 were carried out with protein (20 μM), ethyl diazo acetate (10.0 mM), aniline (20 mM) and Na2S2O4 (10 mM).
While substituted diazo compounds can also be used for insertion, the yield from N—H insertion of ethyl 2-diazopropanoate into aniline is only 26% (product 4.5). To improve efficiency of this reaction, we examined the reaction of ethyl 2-diazopropanoate with a variety of axial mutants. In particular, the axial mutant WT-AxA provided the desired product in 83% yield, compared to 8% yield and 1.7% yield with axial mutant WT-AxS and WT-BM3 heme domain, respectively (FIG. 37B).
(§1) The reactions shown in FIG. 37B were carried out with 10 μM catalyst loading, 20 mM aniline, 10 mM Na2S2O4 and 10 mM ethyl 2-diazopropanoate as described above. For the final entry in FIG. 37B, whole cells expressing BM3-CIS-T438S at 2.5 μM were used. See, U.S. Provisional Application No. 61/711,640 for the procedure for catalysis with whole cells.

[2] = Intramolecular carbene C—H insertion, substrate 4.1a; format: biochemical; conditions: for Yield %: 10 mM 4.1a, 10 uM P450, 10 mM Na2S2O4, product 4.2a
Experimental: Yield of product 4.22b was established after calibration with phenethyl alcohol as an internal standard. The reaction is not catalyzed by the WT-BM3 heme domain or hemin at 5% catalyst loading.
A representative procedure for P450-catalyzed C—H insertion is as follows: A vial containing WT-AxD (20 μL, 200 μM) was sealed with a teflon cap and the headspace of this vial was purged with argon for 5 min. Concurrently, a solution of sodium dithionite (11 mM in phosphate buffer pH=8) was degassed for a minimum of 5 min and 360 μL of this solution was transferred to the vial containing protein. The gas lines were disconnected from the vials. The substrate 4.1a or 4.1b was then added as a solution (20 μL, 200 mM). Final concentrations of all components were: 10 uM enzyme, 10 mM substrate, and 10 mM dithionite. […]
The mixture was extracted with 1 mL cyclohexane and analyzed by GC-MS or GC. GC-MS was performed on a Shimadzu TQ8030 GC-MS with ion count detector and J&W HP-5 column (30 m×0.32 mm, 0.25 μm film) using the following method: 90° C. (hold 2 min), 90-190° C. (20° C./min), and 190-230 (40° C./min)

[3] = N—H insertion, aniline with ethyl 2-diazopropanoate, whole cells; format: cell-based; conditions: whole cells expressing enzyme at 2.5 μM
Experimental: as §1

B1: WT-BM3 heme: WT heme domain (amino acids 1-463 of SEQ ID NO: 1) (protein, listed as Bacillus megaterium)
chain: TIKEMPQPKTFGELKNLPLLNTDKPVQALMKIADELGEIFKFEAPGRVTRYLSSQRLIKEACDESRFDKNLSQALKFVRDFAGDGLFTSWTHEKNWKKAHNILLPSFSQQAMKGYHAMMVDIAVQLVQKWERLNADEHIEVPEDMTRLTLDTIGLCGFNYRFNSFYRDQPHPFITSMVRALDEAMNKLQRANPDDPAYDENKRQFQEDIKVMNDLVDKIIADRKASGEQSDDLLTHMLNGKDPETGEPLDDENIRYQIITFLIAGHETTSGLLSFALYFLVKNPHVLQKAAEEAARVLVDPVPSYKQVKQLKYVGMVLNEALRLWPTAPAFSLYAKEDTVLGGEYPLEKGDELMVLIPQLHRDKTIWGDDVEEFRPERFENPSAIPQHAFKPFGNGQRACIGQQFALHEATLVLGMMLKHFDFEDHTNYELDIKETLTLKPEGFVVKAKSKKIPLGGIPSPST
modifications: cytochrome P450NADPH-P-450 reductase precursor, cytochrome P450 (BM3), CYP102A1
[1]
  yield of product 4.5: 1.7%
[2]
  Yield %: 0%
[2]; substrates 4.1a and 4.1b, 10 μM variant or hemin at 5% catalyst loading, 16 h
  lactone formation via C—H bond insertion: not catalyzed

B2: WT-AxA: WT heme domain + C400A (protein)
chain: B1 chain with C400A, T438S, E442K
modifications: synthetic cytochrome P450-BM3 variant WT-AxA (heme)
notes: WT heme domain + C400A
[1]
  yield of product 4.5: 83%
[2]
  Yield %: trace

B3: WT-AxS: WT heme domain + C400S (protein, listed as Bacillus megaterium)
chain: B1 chain with C400S
modifications: cytochrome P450NADPH-P-450 reductase precursor, cytochrome P450 (BM3), CYP102A1
notes: WT heme domain + C400S
[1]
  yield of product 4.5: 8%

B4: BM3-CIS-T438S: BM3-CIS + T438S (protein, listed as Bacillus megaterium)
chain: TIKEMPQPKTFGELKNLPLLNTDKPVQALMKIADELGEIFKFEAPGRVTRYLSSQRLIKEACDESRFDKNLSQALKFARDFAGDGLVTSWTHEKNWKKAHNILLPSFSQQAMKGYHAMMVDIAVQLVQKWERLNADEHIEVSEDMTRLTLDTIGLCGFNYRFNSFYRDQPHPFIISMVRALDEVMNKLQRANPDDPAYDENKRQFQEDIKVMNDLVDKIIADRKARGEQSDDLLTQMLNGKDPETGEPLDDGNIRYQIITFLIAGHEATSGLLSFALYFLVKNPHVLQKVAEEAARVLVDPVPSYKQVKQLKYVGMVLNEALRLWPTAPAFSLYAKEDTVLGGEYPLEKGDEVMVLIPQLHRDKTVWGDDVEEFRPERFENPSAIPQHAFKPFGNGQRACIGQQFALHEATLVLGMMLKHFDFEDHTNYELDIKETLSLKPKGFVVKAKSKKIPLGGIPSPSTEQSAKKVRKKAENAHNTPLLVLYGSNMGTAEGTARDLADIAMSKGFAPQVATLDSHAGNLPREGAVLIVTASYNGHPPDNAKQFVDWLDQASADEVKGVRYSVFGCGDKNWATTYQKVPAFIDETLAAKGAENIADRGEADASDDFEGTYEEWREHMWSDVAAYFNLDIENSEDNKSTLSLQFVDSAADMPLAKMHGAFSTNVVASKELQQPGSARSTRHLEIELPKEASYQEGDHLGVIPRNYEGIVNRVTARFGLDASQQIRLEAEEEKLAHLPLAKTVSVEELLQYVELQDPVTRTQLRAMAAKTVCPPHKVELEALLEKQAYKEQVLAKRLTMLELLEKYPACEMKFSEFIALLPSIRPRYYSISSSPRVDEKQASITVSVVSGEAWSGYGEYKGIASNYLAELQEGDTITCFISTPQSEFTLPKDPETPLIMVGPGTGVAPFRGFVQARKQLKEQGQSLGEAHLYFGCRSPHEDYLYQEELENAQSEGIITLHTAFSRMPNQPKTYVQHVMEQDGKKLIELLDQGAHFYICGDGSQMAPAVEATLMKSYADVHQVSEADARLWLQQLEEKGRYAKDVWAG
modifications: cytochrome P450NADPH-P-450 reductase precursor, cytochrome P450 (BM3), CYP102A1
[3]
  enantioselectivity: 7%
  yield of 4.5: 17%

B5: WT-AxY: WT heme domain + C400Y (protein, listed as Bacillus megaterium)
chain: B1 chain with C400Y
modifications: cytochrome P450NADPH-P-450 reductase precursor, cytochrome P450 (BM3), CYP102A1
notes: WT heme domain + C400Y
[2]
  Yield %: trace
